Results taken from US20170304442A1 (SORRENTO THERAPEUTICS, published 2017).

T1: recombinant mouse WISP1/His (mouse, UniProt O54775 23-367)
T1 construct: also called murine WISP1; mWISP1; not shown: His tag
T1 sequence (looked up): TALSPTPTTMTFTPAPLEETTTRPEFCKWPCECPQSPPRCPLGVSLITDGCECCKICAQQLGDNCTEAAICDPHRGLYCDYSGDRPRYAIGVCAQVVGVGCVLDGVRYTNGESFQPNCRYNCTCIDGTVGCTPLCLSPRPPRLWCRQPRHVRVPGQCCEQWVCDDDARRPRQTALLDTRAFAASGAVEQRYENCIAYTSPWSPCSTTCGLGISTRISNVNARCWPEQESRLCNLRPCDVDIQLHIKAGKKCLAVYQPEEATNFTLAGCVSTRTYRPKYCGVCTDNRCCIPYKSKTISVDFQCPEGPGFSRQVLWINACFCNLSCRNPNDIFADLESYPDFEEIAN

T2: recombinant human WISP1/His (human, UniProt O95388 23-367)
T2 construct: also called hWISP1; recombinant human WISP1 protein; not shown: His tag
T2 sequence (looked up): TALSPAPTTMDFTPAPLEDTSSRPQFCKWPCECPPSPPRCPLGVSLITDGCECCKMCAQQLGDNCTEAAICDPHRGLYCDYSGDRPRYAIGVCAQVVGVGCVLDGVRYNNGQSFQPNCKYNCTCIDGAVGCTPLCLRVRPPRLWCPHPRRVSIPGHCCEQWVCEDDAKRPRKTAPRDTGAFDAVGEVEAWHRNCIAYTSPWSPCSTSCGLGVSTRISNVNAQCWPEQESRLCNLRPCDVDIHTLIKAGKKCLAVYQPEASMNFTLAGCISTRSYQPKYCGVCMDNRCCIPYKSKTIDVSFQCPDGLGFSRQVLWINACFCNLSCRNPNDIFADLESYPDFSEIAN


Assays:
[1] = biological target: T1, recombinant mouse WISP1/His; assay: ELISA screening
[2] = biological target: T2, recombinant human WISP1/His; assay: SPR, IgG captured on anti-human Fc CM5 chip, human WISP1/His as analyte, 1:1 Langmuir fit
Procedure: This example illustrates binding affinities of various anti-WISP-1 antibodies disclosed herein. Briefly, Anti-human Fc antibody (GE, BR-1008-39) was immobilized on CM5 sensor chip to approximately 1000 RU using standard NHS/EDC coupling methodology. Antibodies (about 10 μg/ml) were captured for 60 s at a flow rate 10 μl/min. Recombinant human WISP1/His was serially diluted in running buffer (HBS-EP). All measurements were conducted with a flow rate of 30 μL/min. Surfaces were regenerated with 3M MgCl2 for 60 s. A 1:1 (Langmuir) binding model was used to fit the data.

[3] = biological target: T2, recombinant human WISP1/His; assay: ELISA screening

Binder | binding result [1] | Kd [2] [nM] | koff [2] [s⁻¹] | kon [2] [M⁻¹ s⁻¹] | binding result [3]
WIr2F6 (antibody, V domains shown, Tested as IgG (captured by anti-human Fc); also called Wlr2F6) VH: QMQLVQSGAEVKRPGASVKVSCKASGYSFTNFDINWVRQATGQGLEWMGWMDPNSGNSGSAPAFQGRVTMTRDTSIGTAYMELSGLTSEDTAVYYCARDDFYDSSGFDAWGQGTLVTVSS VL: QSVLTQPPSASGTPGQTVTVSCSGRSSNVGSNTVDWYQHLPGTAPKLLIYSSNRRPSGVPDRFSGSKSGTSASLAISGLQSEDEADYYCAAWDDSLNVYVFGTGTKLTVL | binds | 10.1 | 0.00559 | 554000 | –
WIr2H3 (antibody, V domains shown, Tested as IgG (captured by anti-human Fc); also called Wlr2H3) VH: EVQLVQSGGGMVQPGGSLRLSCAASGFTFSDYYMDWVRQAPGQGLEWVGRIRHKAQGYTTEYAASVKGRFSISRDDSRSSLSLQMNSLKTEDTAVYYCAMVGGSRDWGQGTLVTVSS VL: QAGLTQPPSVSGAPGQRVTISCTGGSSNIGPGYAVHWYQQHPGRAPKLLIYTNNNRPSGVPDRFSGSRSGTSASLAITGLQAEDDAYYYCQSYDSSLSGSVFGGGTKLTVL | binds | 95.9 | 0.00897 | 93500 | –
WIr2B9 (antibody, V domains shown, Fully human IgG; also called Wlr2B9) VH: QVQLVQSGAEVKKPGSSVKVSCKASGGTFNNYNINWVRQAPGQGFEWMGRIVPMLGVPKYAQKFQGRVTISADMSTSTAYMELRSLRSDDTAMYYCARGEDLDPWGQGTLVTVS VL: SYELMQPASVSGSPGQSITISCTGTSSDVGGYNYVSWYQQHPGKAPKLMIYDVSKRPSGVSNRFSGSKSGNTASLTISGLQAEDEADYYCSSYTSSSPYVFGTGTKVTVL | binds | – | – | – | binds
WIr2G8 (antibody, V domains shown, Fully human IgG; also called Wlr2G8) VH: QVQLVQSGAEVQKPGASVKVSCKASGYRFINNDIHWVRQATGQGLEWMGWMDPNNGKTGYAQKFQGRVTMTRDTSISTAYMELSSLRSEDTGVYYCVRGIIAAAGGGWGQGTLVTVSS VL: DVVMTQSPSTLSASVGDRATITCRASQSVDTWLAWYQQKPGKAPHVLIYKASNLNSGVPSRFSGSGSGTEFTLTISSLQPDDFATYYCQQYKTWWTFGQGTKVEIK | binds | – | – | – | binds
WIr2D3 (antibody, V domains shown, Fully human IgG; also called Wlr2D3) VH: QVQLVQSGGGLVQPGRSLRLSCAASGFTFSSYGMHWVRQAPGKGLEWVAVISYDGSNKYYADSVKGRFTISRDNSKNTLYLQMNSLRAEDTAVYYCFDDYVDYWGQGTLVTVSS VL: DIVMTQTPSSLSASVGDRVTITCRASQGISNYLAWYQQKPGKAPKLLIYAASSLQSGVPSRFSGSGSGTDFTLTISSLRPEDFATYYCLQDYSFPLTFGGGTKVEIK | binds | – | – | – | binds
WIr2C11 (antibody, V domains shown, Tested as IgG (captured by anti-human Fc); also called Wlr2C11) VH: QVQLVESGGALVQPGGSLRLSCAASGFTFSDHWLSWVRQAPGKGLEWVSSISSSSRYIHYADSVKGRFTISRDNAKNSLYLQMNSLSAEDTAVYYCAREDTSMATNGFDVWGQGTMVTVSS VL: AIQLTQSPSSLSASVGDRVTITCRASQGIRNHLGWYQQKPGKAPKRLIYAASSLQSGVPSRFSGSGSGTEFTLTISGLQPEDFATYYCLQHNSYPFTFGQGTRLEIK | binds | 81.7 | 0.0219 | 267000 | –

More lines, now with the values ahead:

binding result [1] | Kd [2] [nM] | koff [2] [s⁻¹] | kon [2] [M⁻¹ s⁻¹] | binding result [3] | Binder
binds | – | – | – | binds | WIr2D9 (antibody, V domains shown, Fully human IgG; also called Wlr2D9) VH: QVQLVQSGAEVKKPGASVKVSCKVSGYTLTELSMHWVRQAPGKGLEWMGGFDPEDGETIYAQKFQGRVTMTEDTSTDTAYMELSSLRSEDTAVYYCATEGWFGELSPVYWGQGTLVTVSS VL: AIQLTQSPSSLSASVGDRVTITCRASQDIRNDLGWYQQKPGRAPQRLIYTTSTLQSGVPSRFSGSGSGTEFTLTISSLQPEDFATYYCLQHNTYPWTFGQGTRLEIK
binds | – | – | – | binds | WIr2E4 (antibody, V domains shown, Fully human IgG; also called Wlr2E4) VH: QVQLQQSGAEVKKPGASVKVSCKVSGYTLTELSMHWVRQAPGKGLEWMGGFDPEDGETIYAQKFQGRVTMTEDTSTDTAYMELSSLRSEDTAVYYCATDRWWERTTWGAFDIWGQGTMVTVSS VL: QSVLTQPASVSGSPGQSITISCIGTGSAAVSWYQQHPGKAPKLIIYDVNNRPSGVSARFSGSKSDNTASLTISGLQAEDEGDYYCSTYGAGSTWVFGGGTKLTVL
binds | 53.9 | 0.0489 | 907000 | – | WIr2D6 (antibody, V domains shown, Tested as IgG (captured by anti-human Fc); also called Wlr2D6) VH: EVQLVQSGAEVKRSGASVKVSCKLSGDTLTDLSIHWVRQAPGKGLEWMGGFDFEDGEIVYGDKFKGRVTVTEDPSTDTAYMDLKRLTFEDTAIYYCATIKDIPGRYYFDFWGQGTLVTVSS VL: VIWMTQSPSSVSASVGDTVTITCRASQGIRSWLAWYQQKPGKAPKLLIYGASSLHSGVPSRFSGSGSGTYFTLTISSLQPEDFATYYCQQADSFPPWTFGQGTKVEIK
binds | – | – | – | binds | WIr2D5 (antibody, V domains shown, Fully human IgG; also called Wlr2D5) VH: EVQLVESGAEVKKPGASVKVSCKASGYTFTSYGISWVRQAPGQGLEWMGWISAYNGNTNYAQKLQGRVTMTTDTSTSTAYMELRSLRSDDTAVYYCARVRVFEYSSLMDVWGQGTTVTVSS VL: AIQMTQSPSSLSASVGDRVTITCQASQDISNYLNWYQQKPGKAPKLLIYDASNLETGVPSRFSGSGSGTDFTFTISSLQPEDIATYYCQQHDNLPITFGQGTRLEIK
binds | – | – | – | binds | WIr2G7 (antibody, V domains shown, Fully human IgG; also called Wlr2G7) VH: QVQLVQSGAEVKKPGASVKVSCKASGYTFTSYDINWVRQATGQGPEWLGWLNPGSGKTGNAQNFQGRVFMTWDTSKDTAYMEMSSLRSDDTAVYYCARNLDYWGQGTLVTVSS VL: DIVMTQTPLSLPVTLGQPASISCRSSQSLVYSDGNTYLSWLQQRPGQPPRVLINQISNRFSGVPDRFSGSGAGTDFTLKISRVEAEDVGVYYCMQATQFPVTFGGGTKVEIK
binds | – | – | – | binds | WIr2H2 (antibody, V domains shown, Fully human IgG; also called Wlr2H2) VH: EVQLVQSGADVKKPGASVKVSCQASGYTLTSYDIHWMRQAPGQGLEWMGWINPNSGNTGYAEKFQGRVAMTSHTSTSTVYMELSRLTSEDTAVYYCARGAMGGFDPWGQGTLVTVSS VL: DIQMTQSPSSVSASVGDRVTITCRASQDISRWLAWYQQKPGKAPKLLIYAASTLQSGVPSRFSGSGSGTDFTLTISSLQPEDFATYYCQQANTFPITFGQGTRLEIK
binds | – | – | – | binds | WIr2D10 (antibody, V domains shown, Fully human IgG; also called Wlr2D10) VH: QVQLVESGGGVVQPGRSLRLSCGASGFTFSRFAMHWVRQAPGKGLEWVTVTSFDGSEIYYADSVKGRFTISRDNSKNTLYLQMNSLRVDDTAVYFCARDALGSIDYWGQGTLVTVSS VL: not shown
binds | 0.631 | 0.00025 | 396000 | – | WIr2H4 (antibody, V domains shown, Tested as IgG (captured by anti-human Fc); also called Wlr2H4) VH: EVQLVESGGDLVQPGGSLRLSCAASGFTLNSRDMHWVRQSTRTGLEWVAAISIAGDTYYPLSVRGRFTISRDTAKSSLYLQMNSLTDGDTAVYYCVRGRHFDGYKSVFFDSWGQGTLVTVSS VL: not shown
